Columns and labels:
Assay in all cases: cell-based or functional assay
[1] = biological target: HIV-1 Env of pseudovirus HIV-16055-2.3 (HIV-1)
[2] = biological target: HIV-1 envelope of pseudovirus WITO4160.33 (HIV-1)
[3] = biological target: HIV-1 Env of pseudovirus 231965.c01 (HIV-1)
[4] = biological target: HIV-1 Env of pseudovirus 0260.v5.c36 (HIV-1)
[5] = biological target: HIV-1 envelope of pseudovirus 6244_13_85_4576 (HIV-1)
[6] = biological target: HIV-1 envelope of pseudovirus X1254_c3 (HIV-1)
[7] = biological target: HIV-1 Env of pseudovirus 89-F1_2_25 (HIV-1)
[8] = biological target: HIV-1 Env of pseudovirus X1632_S2_B10 (HIV-1)
[9] = biological target: HIV-1 Env of pseudovirus 211-9 (HIV-1)
[10] = biological target: HIV-1 envelope of pseudovirus 231965.c01 (HIV-1)
[11] = biological target: HIV-1 Env of pseudovirus X1254_c3 (HIV-1)
[12] = biological target: HIV-1 envelope of pseudovirus 246F C1G (HIV-1)
[13] = biological target: HIV-1 envelope of pseudovirus 263-8 (HIV-1)
[14] = biological target: HIV-1 Env of pseudovirus ZM135M.PL10a (HIV-1)
[15] = biological target: HIV-1 envelope of pseudovirus CNE17 (HIV-1)
[16] = biological target: HIV-1 Env of pseudovirus CNE17 (HIV-1)
[17] = biological target: HIV-1 envelope of pseudovirus CAP45.2.00.G3 (HIV-1)
[18] = biological target: HIV-1 envelope of pseudovirus R1166.c01 (HIV-1)
[19] = biological target: HIV-1 Env of pseudovirus Q842.d12 (HIV-1)
[20] = biological target: HIV-1 Env of pseudovirus 6952.v1.c20 (HIV-1)
[21] = biological target: HIV-1 Env of pseudovirus 231966.c02 (HIV-1)
[22] = biological target: HIV-1 envelope of pseudovirus HIV-16055-2.3 (HIV-1)
[23] = biological target: HIV-1 envelope of pseudovirus 928-28 (HIV-1)
[24] = biological target: HIV-1 Env of pseudovirus RHPA4259.7 (HIV-1)
[25] = biological target: HIV-1 envelope of pseudovirus Ce2060_G9 (HIV-1)
[26] = biological target: HIV-1 envelope of pseudovirus THRO4156.18 (HIV-1)
[27] = biological target: HIV-1 Env of pseudovirus YU-2 (HIV-1) (UniProt P35961)
[28] = biological target: HIV-1 envelope of pseudovirus T255-34 (HIV-1)
[29] = biological target: HIV-1 Env of pseudovirus CNE8 (HIV-1)
[30] = biological target: HIV-1 envelope of pseudovirus BJOX009000.02.4 (HIV-1)
[31] = biological target: HIV-1 envelope of pseudovirus ZM247v1(Rev-) (HIV-1)
[32] = biological target: HIV-1 Env of pseudovirus HIV-16845-2.22 (HIV-1)
[33] = biological target: HIV-1 Env of pseudovirus Ce1176_A3 (HIV-1)
[34] = biological target: HIV-1 envelope of pseudovirus 249M B10 (HIV-1)
[35] = biological target: HIV-1 envelope of pseudovirus X1632_S2_B10 (HIV-1)
[36] = biological target: HIV-1 Env of pseudovirus CAP210.2.00.E8 (HIV-1)
[37] = biological target: HIV-1 envelope of pseudovirus Q769.d22 (HIV-1)
[38] = biological target: HIV-1 Env of pseudovirus CNE5 (HIV-1)
[39] = biological target: HIV-1 Env of pseudovirus ZM109F.PB4 (HIV-1)
[40] = biological target: HIV-1 envelope of pseudovirus P1981_C5_3 (HIV-1)
[41] = biological target: HIV-1 envelope spike of pseudovirus R1166.c1 (HIV-1)
[42] = biological target: HIV-1 envelope of pseudovirus T251-18 (HIV-1)
[43] = biological target: HIV-1 Env of pseudovirus TRJO4551.58 (HIV-1)
[44] = biological target: HIV-1 Env of pseudovirus Q23.17 (HIV-1)
[45] = biological target: HIV-1 envelope spike of pseudovirus TRJO4551.58 (HIV-1)
[46] = biological target: HIV-1 Env of pseudovirus CNE30 (HIV-1)
[47] = biological target: HIV-1 envelope of pseudovirus 3365.v2.c2 (HIV-1)
[48] = biological target: HIV-1 Env of pseudovirus BJOX010000.06.2 (HIV-1)
[49] = biological target: HIV-1 envelope of pseudovirus 3817.v2.c59 (HIV-1)
[50] = biological target: HIV-1 envelope of pseudovirus 211-9 (HIV-1)

10-996 (antibody), sequence (VH): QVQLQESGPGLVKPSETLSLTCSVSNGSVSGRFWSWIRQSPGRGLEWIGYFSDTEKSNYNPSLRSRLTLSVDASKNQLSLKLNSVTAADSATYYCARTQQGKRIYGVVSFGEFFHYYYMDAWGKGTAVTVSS
10-996 (antibody), sequence (VL): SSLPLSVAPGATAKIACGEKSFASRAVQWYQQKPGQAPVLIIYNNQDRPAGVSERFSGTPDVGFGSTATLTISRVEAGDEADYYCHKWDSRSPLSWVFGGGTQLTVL
HIV-1 Env of pseudovirus YU-2 (HIV-1), sequence (P35961 32-843 limits assumed): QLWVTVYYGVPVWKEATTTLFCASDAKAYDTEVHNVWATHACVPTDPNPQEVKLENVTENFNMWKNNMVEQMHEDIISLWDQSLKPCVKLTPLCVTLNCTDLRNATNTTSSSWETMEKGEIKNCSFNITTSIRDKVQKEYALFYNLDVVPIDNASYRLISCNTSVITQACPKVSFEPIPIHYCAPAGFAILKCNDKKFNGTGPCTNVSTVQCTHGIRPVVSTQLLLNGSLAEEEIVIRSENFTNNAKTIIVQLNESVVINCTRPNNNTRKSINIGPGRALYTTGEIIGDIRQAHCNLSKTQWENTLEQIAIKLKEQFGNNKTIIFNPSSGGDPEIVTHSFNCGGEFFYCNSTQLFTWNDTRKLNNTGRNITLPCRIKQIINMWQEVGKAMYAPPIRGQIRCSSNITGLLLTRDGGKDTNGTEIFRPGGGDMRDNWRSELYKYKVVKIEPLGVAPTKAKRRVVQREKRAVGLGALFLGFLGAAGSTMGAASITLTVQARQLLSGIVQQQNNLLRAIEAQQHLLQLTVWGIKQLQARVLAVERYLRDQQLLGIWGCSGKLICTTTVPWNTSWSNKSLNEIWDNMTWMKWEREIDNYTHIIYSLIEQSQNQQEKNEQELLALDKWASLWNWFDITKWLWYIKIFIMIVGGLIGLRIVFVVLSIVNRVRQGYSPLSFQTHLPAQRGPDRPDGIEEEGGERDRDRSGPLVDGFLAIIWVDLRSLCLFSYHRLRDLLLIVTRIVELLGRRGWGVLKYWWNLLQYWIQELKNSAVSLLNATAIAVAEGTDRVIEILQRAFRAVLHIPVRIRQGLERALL

10-996 (antibody)
IC80 (TZM-bl neutralization) [1]: > 50 µg/mL | IC50 (TZM-bl neutralization) [2]: 0.538 µg/mL | IC80 (TZM-bl neutralization) [3]: > 50 µg/mL | IC80 (TZM-bl neutralization) [4]: 0.436 µg/mL | IC50 (TZM-bl neutralization) [5]: 0.353 µg/mL | IC50 (TZM-bl neutralization) [6]: 0.121 µg/mL | IC80 (TZM-bl neutralization) [7]: > 50 µg/mL | IC80 (TZM-bl neutralization) [8]: > 50 µg/mL | IC80 (TZM-bl neutralization) [9]: 3.85 µg/mL | IC50 (TZM-bl neutralization) [10]: > 50 µg/mL | IC80 (TZM-bl neutralization) [11]: 0.42 µg/mL | IC50 (TZM-bl neutralization) [12]: 0.092 µg/mL | IC50 (TZM-bl neutralization) [13]: 10.9 µg/mL | IC80 (TZM-bl neutralization) [14]: 0.553 µg/mL | IC50 (TZM-bl neutralization) [15]: 4.04 µg/mL | IC80 (TZM-bl neutralization) [16]: 24.7 µg/mL | IC50 (TZM-bl neutralization) [17]: > 50 µg/mL | IC50 (TZM-bl neutralization) [18]: > 50 µg/mL | IC80 (TZM-bl neutralization) [19]: > 50 µg/mL | IC80 (TZM-bl neutralization) [20]: 0.188 µg/mL | IC80 (TZM-bl neutralization) [21]: > 50 µg/mL | IC50 (TZM-bl neutralization) [22]: > 50 µg/mL | IC50 (TZM-bl neutralization) [23]: 1.33 µg/mL | IC80 (TZM-bl neutralization) [24]: 0.163 µg/mL | IC50 (TZM-bl neutralization) [25]: > 50 µg/mL | IC50 (TZM-bl neutralization) [26]: > 50 µg/mL | IC80 (TZM-bl neutralization) [27]: 0.891 µg/mL | IC50 (TZM-bl neutralization) [28]: 28.4 µg/mL | IC80 (TZM-bl neutralization) [29]: > 50 µg/mL | IC50 (TZM-bl neutralization) [30]: > 50 µg/mL | IC50 (TZM-bl neutralization) [31]: 0.055 µg/mL | IC80 (TZM-bl neutralization) [32]: 9.93 µg/mL | IC80 (TZM-bl neutralization) [33]: 0.151 µg/mL | IC50 (TZM-bl neutralization) [34]: > 50 µg/mL | IC50 (TZM-bl neutralization) [35]: > 50 µg/mL | IC80 (TZM-bl neutralization) [36]: > 50 µg/mL | IC50 (TZM-bl neutralization) [37]: > 50 µg/mL | IC80 (TZM-bl neutralization) [38]: > 50 µg/mL | IC80 (TZM-bl neutralization) [39]: > 50 µg/mL | IC50 (TZM-bl neutralization) [40]: 0.005 µg/mL | IC50 (TZM-bl neutralization assay) [41]: > 40 µg/mL | IC80 (TZM-bl neutralization assay) [41]: > 40 µg/mL | IC50 (TZM-bl neutralization) [42]: 0.939 µg/mL | IC80 (TZM-bl neutralization) [43]: 7.27 µg/mL | IC80 (TZM-bl neutralization) [44]: 0.03 µg/mL | IC50 (TZM-bl neutralization assay) [45]: 0.516 µg/mL | IC80 (TZM-bl neutralization assay) [45]: 4.26 µg/mL | IC80 (TZM-bl neutralization) [46]: 1.99 µg/mL | IC50 (TZM-bl neutralization) [47]: 0.286 µg/mL | IC80 (TZM-bl neutralization) [48]: > 50 µg/mL | IC50 (TZM-bl neutralization) [49]: 8.15 µg/mL | IC50 (TZM-bl neutralization) [50]: 0.75 µg/mL

Source: patent US12338277
